Consider 1 substance from paper PMC9590162.

For this assay, the target named is human nesfatin-1 (human) (UniProt P80303). Nature of the assay: AUC; SV-AUC, 20 °C, 50 000 rpm, buffer B with 300 or 500 μM ZnCl2; hN1 at 0.7, 1.0, 1.3 mg/ml; monomer to dimer.

“And” between values parts separate entries of the source, which are not always exact repeats. Equal values may be shown once.

As usually defined, the stoichiometry N is a count of units in the complex or per binding partner. Regarding “human nesfatin-1 (from UniProt P80303 25-106) (peptide)”, the percent of the two main sedimenting species in the larger (dimer) fraction is 58% and 45% and 51%; the stoichiometry N came out at 2.
